Biological target: SARS-CoV-2 S receptor-binding domain (RBD) with C-terminal His6 tag (SARS-CoV-2, glycan N343)
Test: BLI

B1: CR3022 IgG (human IgG1, kappa) (antibody, V domains shown)
VH: EVQLVQSGTEVKKPGESLKISCKGSGYGFITYWIGWVRQMPGKGLEWMGIIYPGDSETRYSPSFQGQVTISADKSINTAYLQWSSLKASDTAIYYCAGGSGISTPMDVWGQGTTVTVSS
VL: not shown
Kd: 12.4 nM
